How the values were obtained:
Assay in all cases: cell-based or functional assay
[1] = target: MAGE-B10: 250-260 peptide presented by HLA-DP*0401 on 293-CIITA cells (human, UniProt P20036 29-260)
[2] = target: MAGE-B16: 252-262 peptide presented by HLA-DP*0401 on 293-CIITA cells (human, UniProt P20036 29-260)
[3] = target: MAGE-A3: 248-258 peptide presented by HLA-DP*0401 on 293-CIITA cells (human, UniProt P20036 29-260)
[4] = target: MAGE-A8: 251-261 peptide presented by HLA-DP*0401 on 293-CIITA cells (human, UniProt P20036 29-260)
[5] = target: MAGE-A3: 246-258 peptide presented by HLA-DP*0401 on 293-CIITA cells (human, UniProt P20036 29-260)
[6] = target: MAGE-A2/A12: 248-258 peptide presented by HLA-DP*0401 on 293-CIITA cells (human, UniProt P20036 29-260)
[7] = target: MAGE-A6: 248-258 peptide presented by HLA-DP*0401 on 293-CIITA cells (human, UniProt P20036 29-260)
[8] = target: MAGE-A3: 245-258 peptide presented by HLA-DP*0401 on 293-CIITA cells (human, UniProt P20036 29-260)
[9] = target: MAGE-A3: 247-258 peptide presented by HLA-DP*0401 on 293-CIITA cells (human, UniProt P20036 29-260)
[10] = target: MAGE-A3: 243-255 peptide presented by HLA-DP*0401 on 293-CIITA cells (human, UniProt P20036 29-260)
[11] = target: MAGE-A3: 249-258 peptide presented by HLA-DP*0401 on 293-CIITA cells (human, UniProt P20036 29-260)
[12] = target: MAGE-D2: 413-428 peptide presented by HLA-DP*0401 on 293-CIITA cells (human, UniProt P20036 29-260)
[13] = target: Necdin: 237-247 peptide presented by HLA-DP*0401 on 293-CIITA cells (human, UniProt P20036 29-260)
[14] = target: MAGE-A3: 243-256 peptide presented by HLA-DP*0401 on 293-CIITA cells (human, UniProt P20036 29-260)
[15] = target: MAGE-L2: 582-597 peptide presented by HLA-DP*0401 on 293-CIITA cells (human, UniProt P20036 29-260)
[16] = target: MAGE-A3: 243-258 peptide presented by HLA-DP*0401 on 293-CIITA cells (human, UniProt P20036 29-260)
[17] = target: MAGE-A3: 243-253 peptide presented by HLA-DP*0401 on 293-CIITA cells (human, UniProt P20036 29-260)
[18] = target: MAGE-G1: 220-235 peptide presented by HLA-DP*0401 on 293-CIITA cells (human, UniProt P20036 29-260)
[19] = target: MAGE-A3: 243-254 peptide presented by HLA-DP*0401 on 293-CIITA cells (human, UniProt P20036 29-260)
[20] = target: MAGE-C1: 113-123 peptide presented by HLA-DP*0401 on 293-CIITA cells (human, UniProt P20036 29-260)
[21] = target: MAGE-B2: 250-260 peptide presented by HLA-DP*0401 on 293-CIITA cells (human, UniProt P20036 29-260)
[22] = target: MAGE-A1/B4: 241-251 peptide presented by HLA-DP*0401 on 293-CIITA cells (human, UniProt P20036 29-260)
[23] = target: MAGE-A4/A9: 249-259 peptide presented by HLA-DP*0401 on 293-CIITA cells (human, UniProt P20036 29-260)
[24] = target: MAGE-D4: 300-315 peptide presented by HLA-DP*0401 on 293-CIITA cells (human, UniProt P20036 29-260)

B1: 6F9 TCR (TCR)
TCR alpha: QTVTQSQPEMSVQEAETVTLSCTYDTSESDYYLFWYKQPPSRQMILVIRQEAYKQQNATENRFSVNFQKAAKSFSLKISDSQLGDAAMYFCALRSSGTYKYIFGTGTRLKVLANIQNPDPAVYQLRDSKSSDKSVCLFTDFDSQTNVSQSKDSDVYITDKTVLDMRSMDFKSNSAVAWSNKSDFACANAFNNSIIPEDTFFPSPESSCDVKLVEKSFETDTNLNFQNLSVIGFRILLLKVAGFNLLMTLRLWSS
TCR beta: GAGVSQSPSNKVTEKGKDVELRCDPISGHTALYWYRQSLGQGLEFLIYFQGNSAPDKSGLPSDRFSAERTGGSVSTLTIQRTQQEDSAVYLCASIRTGPFFSGNTIYFGEGSWLTVVEDLNKVFPPEVAVFEPSEAEISHTQKATLVCLATGFFPDHVELSWWVNGKEVHSGVSTDPQPLKEQPALNDSRYCLSSRLRVSATFWQNPRNHFRCQVQFYGLSENDEWTQDRAKPVTQIVSAEAWGRADCGFTSVSYQQGVLSATILYEILLGKATLYAVLVSALVLMAMVKRKDF
IFN-g (pg/ml); CD4+ T cells of PBMC-1; 293-CIITA pulsed with peptide [1]: 22 pg/mL
IFN-g (pg/ml); CD4+ T cells of PBMC-2; 293-CIITA pulsed with peptide [1]: 28 pg/mL
IFN-g (pg/ml); CD4+ T cells of PBMC-1; 293-CIITA pulsed with peptide [2]: 0 pg/mL
IFN-g (pg/ml); CD4+ T cells of PBMC-2; 293-CIITA pulsed with peptide [2]: 11 pg/mL
IFN-g (pg/ml); CD4+ T cells of PBMC-1; 293-CIITA pulsed with peptide [3]: 6220 pg/mL
IFN-g (pg/ml); CD4+ T cells of PBMC-2; 293-CIITA pulsed with peptide [3]: 7400 pg/mL
IFN-g (pg/ml); CD4+ T cells of PBMC-1; 293-CIITA pulsed with peptide [4]: 43 pg/mL
IFN-g (pg/ml); CD4+ T cells of PBMC-2; 293-CIITA pulsed with peptide [4]: 39 pg/mL
IFN-g (pg/ml); CD4+ T cells of PBMC-1; 293-CIITA pulsed with peptide [5]: 7140 pg/mL
IFN-g (pg/ml); CD4+ T cells of PBMC-2; 293-CIITA pulsed with peptide [5]: 9200 pg/mL
IFN-g (pg/ml); CD4+ T cells of PBMC-1; 293-CIITA pulsed with peptide [6]: 33 pg/mL
IFN-g (pg/ml); CD4+ T cells of PBMC-2; 293-CIITA pulsed with peptide [6]: 37 pg/mL
IFN-g (pg/ml); CD4+ T cells of PBMC-1; 293-CIITA pulsed with peptide [7]: 6440 pg/mL
IFN-g (pg/ml); CD4+ T cells of PBMC-2; 293-CIITA pulsed with peptide [7]: 13200 pg/mL
IFN-g (pg/ml); CD4+ T cells of PBMC-1; 293-CIITA pulsed with peptide [8]: 9290 pg/mL
IFN-g (pg/ml); CD4+ T cells of PBMC-2; 293-CIITA pulsed with peptide [8]: 8920 pg/mL
IFN-g (pg/ml); CD4+ T cells of PBMC-1; 293-CIITA pulsed with peptide [9]: 6710 pg/mL
IFN-g (pg/ml); CD4+ T cells of PBMC-2; 293-CIITA pulsed with peptide [9]: 6810 pg/mL
IFN-g (pg/ml); CD4+ T cells of PBMC-1; 293-CIITA pulsed with peptide [10]: 76 pg/mL
IFN-g (pg/ml); CD4+ T cells of PBMC-2; 293-CIITA pulsed with peptide [10]: 111 pg/mL
IFN-g (pg/ml); CD4+ T cells of PBMC-1; 293-CIITA pulsed with peptide [11]: 669 pg/mL
IFN-g (pg/ml); CD4+ T cells of PBMC-2; 293-CIITA pulsed with peptide [11]: 922 pg/mL
IFN-g (pg/ml); CD4+ T cells of PBMC-1; 293-CIITA pulsed with peptide [12]: 82 pg/mL
IFN-g (pg/ml); CD4+ T cells of PBMC-2; 293-CIITA pulsed with peptide [12]: 226 pg/mL
IFN-g (pg/ml); CD4+ T cells of PBMC-1; 293-CIITA pulsed with peptide [13]: 0 pg/mL
IFN-g (pg/ml); CD4+ T cells of PBMC-2; 293-CIITA pulsed with peptide [13]: 21 pg/mL
IFN-g (pg/ml); CD4+ T cells of PBMC-1; 293-CIITA pulsed with peptide [14]: 1020 pg/mL
IFN-g (pg/ml); CD4+ T cells of PBMC-2; 293-CIITA pulsed with peptide [14]: 1670 pg/mL
IFN-g (pg/ml); CD4+ T cells of PBMC-1; 293-CIITA pulsed with peptide [15]: 45 pg/mL
IFN-g (pg/ml); CD4+ T cells of PBMC-2; 293-CIITA pulsed with peptide [15]: 78 pg/mL
IFN-g (pg/ml); CD4+ T cells of PBMC-1; 293-CIITA pulsed with peptide [16]: 10200 pg/mL
IFN-g (pg/ml); CD4+ T cells of PBMC-2; 293-CIITA pulsed with peptide [16]: 10400 pg/mL
IFN-g (pg/ml); CD4+ T cells of PBMC-1; 293-CIITA pulsed with peptide [17]: 0 pg/mL
IFN-g (pg/ml); CD4+ T cells of PBMC-2; 293-CIITA pulsed with peptide [17]: 30 pg/mL
IFN-g (pg/ml); CD4+ T cells of PBMC-1; 293-CIITA pulsed with peptide [18]: 0 pg/mL
IFN-g (pg/ml); CD4+ T cells of PBMC-2; 293-CIITA pulsed with peptide [18]: 25 pg/mL
IFN-g (pg/ml); CD4+ T cells of PBMC-1; 293-CIITA pulsed with peptide [19]: 28 pg/mL
IFN-g (pg/ml); CD4+ T cells of PBMC-2; 293-CIITA pulsed with peptide [19]: 30 pg/mL
IFN-g (pg/ml); CD4+ T cells of PBMC-1; 293-CIITA pulsed with peptide [20]: 9 pg/mL
IFN-g (pg/ml); CD4+ T cells of PBMC-2; 293-CIITA pulsed with peptide [20]: 25 pg/mL
IFN-g (pg/ml); CD4+ T cells of PBMC-1; 293-CIITA pulsed with peptide [21]: 0 pg/mL
IFN-g (pg/ml); CD4+ T cells of PBMC-2; 293-CIITA pulsed with peptide [21]: 7 pg/mL
IFN-g (pg/ml); CD4+ T cells of PBMC-1; 293-CIITA pulsed with peptide [22]: 129 pg/mL
IFN-g (pg/ml); CD4+ T cells of PBMC-2; 293-CIITA pulsed with peptide [22]: 108 pg/mL
IFN-g (pg/ml); CD4+ T cells of PBMC-1; 293-CIITA pulsed with peptide [23]: 0 pg/mL
IFN-g (pg/ml); CD4+ T cells of PBMC-2; 293-CIITA pulsed with peptide [23]: 22 pg/mL
IFN-g (pg/ml); CD4+ T cells of PBMC-1; 293-CIITA pulsed with peptide [24]: 193 pg/mL
IFN-g (pg/ml); CD4+ T cells of PBMC-2; 293-CIITA pulsed with peptide [24]: 194 pg/mL
